{"source": "paper PMC1513386", "origin": "cited, not measured here", "key": {"Asp59": {"target": "Asp59 (UniProt position 80, VCCSTDKCN--)"}, "Asp44": {"target": "Asp44 (UniProt position 44, AARQPDLIPLL)", "test": "NMR"}, "Asp61": {"target": "Asp61 (UniProt position 61, VMGLVDAIPMI)", "test": "NMR"}, "Asp7": {"target": "Asp7 (UniProt position 7, ENLNMDLLYMA)", "test": "NMR"}, "Glu2": {"target": "Glu2 (UniProt position 2, ----MENLNMD)", "test": "NMR"}, "Glu37": {"target": "Glu37 (UniProt position 37, GGKFLEGAARQ)", "test": "NMR"}, "Asp101 [1]": {"target": "Asp101 (UniProt position 148, IYKTTDHYQTF)", "settings": "not stated (values are paired with the folded structure 1A2P; ref 20 covers native and denatured states)"}, "Asp54": {"target": "Asp54 (UniProt position 101, KSIGGDIFSNR)", "settings": "not stated (values are paired with the folded structure 1A2P; ref 20 covers native and denatured states)"}, "Asp93": {"target": "Asp93 (UniProt position 140, ILYSSDWLIYK)", "settings": "not stated (values are paired with the folded structure 1A2P; ref 20 covers native and denatured states)"}, "Glu73": {"target": "Glu73 (UniProt position 120, GRTWREADINY)", "settings": "not stated (values are paired with the folded structure 1A2P; ref 20 covers native and denatured states)"}, "Asp10": {"target": "Asp10 (UniProt position 10, VEIFTDGSCLG)", "test": "NMR"}, "Asp102": {"target": "Asp102 (UniProt position 102, PVKNVDLWQRL)", "test": "NMR"}, "Asp148": {"target": "Asp148 (UniProt position 148, NPTLEDTGYQV)", "test": "NMR"}, "Asp70": {"target": "Asp70 (UniProt position 70, VILSTDSQYVR)", "test": "NMR"}, "Asp18": {"target": "Asp18 (UniProt position 36, KRLGLDNYRGY)", "test": "NMR"}, "Asp48": {"target": "Asp48 (UniProt position 66, TNRNTDGSTDY)", "test": "NMR"}, "Asp66": {"target": "Asp66 (UniProt position 84, RWWCNDGRTPG)", "test": "NMR"}, "Asp87": {"target": "Asp87 (UniProt position 105, ALLSSDITASV)", "test": "NMR"}, "Glu35": {"target": "Glu35 (UniProt position 53, CAAKFESNFNT)", "test": "NMR"}, "Glu7": {"target": "Glu7 (UniProt position 25, VYGRCELAAAM)", "test": "NMR"}, "Asp26": {"target": "Asp26 (UniProt position 26, KLVVVDFSATW)"}, "Glu6": {"target": "Glu6 (UniProt position 6, MVKQIESKTAF)", "settings": "listed under PDB 1TRS; redox state not stated in the article, and 1TRS is the oxidised form (inferred)"}, "Glu68": {"target": "Glu68 (UniProt position 68, QDVASECEVKC)"}, "Asp21": {"target": "Asp21 (UniProt position 41, VSILSDASFNQ)", "test": "NMR"}, "Asp30": {"target": "Asp30 (UniProt position 50, NQCSTDSGYSM)", "test": "NMR"}, "Asp72": {"target": "Asp72 (UniProt position 92, NPPNCDLTVPT)", "test": "NMR"}, "Glu115": {"target": "Glu115 (UniProt position 142, SKKPKENPGPA)", "test": "NMR"}, "Glu96": {"target": "Glu96 (UniProt position 123, DHYLLEFPTFP)", "test": "NMR"}, "Asp101 [2]": {"target": "Asp101 (UniProt position 129, GTVKSDGGTYD)"}, "Asp106": {"target": "Asp106 (UniProt position 134, DGGTYDIYTTT)"}, "Asp11": {"target": "Asp11 (UniProt position 39, WQNWTDGGGIV)"}, "Asp83": {"target": "Asp83 (UniProt position 111, EYYVVDSWGTY)"}, "Glu172": {"target": "Glu172 (UniProt position 200, QVMATEGYQSS)"}, "[3]": {"settings": "listed under PDB 1TRS, redox state not stated in the article, and 1TRS is the oxidised form (inferred)"}, "[4]": {"settings": "listed under PDB 1TRW, redox state not stated in the article, and 1TRW is the reduced form (inferred)"}}, "note": "Read-outs that look alike come from different tables or passages of the source.", "data": [{"substance": "Snake cardiotoxin (PDB 1KXI, cardiotoxin V / A5) (Naja atra)", "values": [{"measurement": "pKa", "setting": "Asp59", "result": 2.30}]}, {"substance": "F1Fo ATP synthase subunit c (Escherichia coli)", "values": [{"measurement": "pKa", "setting": "Asp44", "result": 5.60}, {"measurement": "pKa", "setting": "Asp61", "result": 7.00}, {"measurement": "pKa", "setting": "Asp7", "result": 5.60}, {"measurement": "pKa", "setting": "Glu2", "result": 5.50}, {"measurement": "pKa", "setting": "Glu37", "result": 5.50}]}, {"substance": "Barnase (ribonuclease) (Bacillus amyloliquefaciens)", "values": [{"measurement": "pKa", "setting": "Asp101 [1]", "result": 2.00}, {"measurement": "pKa", "setting": "Asp54", "result": 2.00}, {"measurement": "pKa", "setting": "Asp93", "result": 2.00}, {"measurement": "pKa", "setting": "Glu73", "result": 2.10}]}, {"substance": "Ribonuclease HI (Escherichia coli)", "values": [{"measurement": "pKa", "setting": "Asp10", "result": 6.10}, {"measurement": "pKa", "setting": "Asp102", "result": 2.00}, {"measurement": "pKa", "setting": "Asp148", "result": 2.00}, {"measurement": "pKa", "setting": "Asp70", "result": 2.60}]}, {"substance": "Lysozyme C (turkey egg white) (Meleagris gallopavo)", "values": [{"measurement": "pKa", "setting": "Asp18", "result": 2.70}, {"measurement": "pKa", "setting": "Asp48", "result": 2.50}, {"measurement": "pKa", "setting": "Asp66", "result": 2.00}, {"measurement": "pKa", "setting": "Asp87", "result": 2.10}, {"measurement": "pKa", "setting": "Glu35", "result": 6.10}, {"measurement": "pKa", "setting": "Glu7", "result": 2.70}]}, {"substance": "Thioredoxin (Homo sapiens)", "values": [{"measurement": "pKa", "setting": "Asp26; [3]", "result": 8.10}, {"measurement": "pKa", "setting": "Asp26; [4]", "result": 9.90}, {"measurement": "pKa", "setting": "Glu6", "result": 4.90}, {"measurement": "pKa", "setting": "Glu68; [3]", "result": 5.10}, {"measurement": "pKa", "setting": "Glu68; [4]", "result": 4.90}]}, {"substance": "Beta-elicitin cryptogein (Phytophthora cryptogea)", "values": [{"measurement": "pKa", "setting": "Asp21", "result": 2.50}, {"measurement": "pKa", "setting": "Asp30", "result": 2.50}, {"measurement": "pKa", "setting": "Asp72", "result": 2.60}]}, {"substance": "Alpha-sarcin (cytotoxic ribonuclease) (Aspergillus giganteus)", "values": [{"measurement": "pKa", "setting": "Glu115", "result": 4.90}, {"measurement": "pKa", "setting": "Glu96", "result": 5.10}]}, {"substance": "Endo-1,4-beta-xylanase (Bacillus circulans xylanase) (Bacillus circulans)", "values": [{"measurement": "pKa", "setting": "Asp101 [2]", "result": 2.00}, {"measurement": "pKa", "setting": "Asp106", "result": 2.70}, {"measurement": "pKa", "setting": "Asp11", "result": 2.50}, {"measurement": "pKa", "setting": "Asp83", "result": 2.00}, {"measurement": "pKa", "setting": "Glu172", "result": 6.70}]}]}
